One molecule from patent CN103319600A (MILITARY MEDICINE INST OF NANJING MILITARY REGION, dated 2013) can be followed below.

This assay concerns the target T1, 阴性对照蛋白BSA (UniProt P02769 25-607).
T1 construct: Negative control protein
The assay can be described thus: ELISA.

T1 sequence (P02769 25-607 limits assumed): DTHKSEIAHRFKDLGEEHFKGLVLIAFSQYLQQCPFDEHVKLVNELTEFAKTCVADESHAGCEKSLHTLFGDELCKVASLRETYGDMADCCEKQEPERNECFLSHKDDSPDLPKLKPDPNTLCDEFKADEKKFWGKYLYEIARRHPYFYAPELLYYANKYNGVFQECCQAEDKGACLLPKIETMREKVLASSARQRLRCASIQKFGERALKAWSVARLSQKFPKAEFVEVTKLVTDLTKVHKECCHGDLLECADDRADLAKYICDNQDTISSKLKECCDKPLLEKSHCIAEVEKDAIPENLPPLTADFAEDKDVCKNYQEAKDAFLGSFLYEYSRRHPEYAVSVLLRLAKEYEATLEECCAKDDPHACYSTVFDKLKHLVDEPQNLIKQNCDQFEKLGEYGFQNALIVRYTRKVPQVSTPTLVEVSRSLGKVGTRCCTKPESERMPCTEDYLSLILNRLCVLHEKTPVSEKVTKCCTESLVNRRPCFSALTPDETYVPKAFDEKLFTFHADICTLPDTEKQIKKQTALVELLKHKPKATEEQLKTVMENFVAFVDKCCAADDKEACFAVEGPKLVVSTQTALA

B1: 人源抗TLR4抗体Fab (Fab, V domains shown)
VH: EVQLVESGGGLVKPGRSLRLSCAASGFTFSSYAMHWVRQAPGKGLEWVAVISYDGSNKYYADSVKGRFTISRDNSENTLYLQMNSLRAEDTAVYYCAAYSSSSWFDPWGQGTLVTVSP
VL: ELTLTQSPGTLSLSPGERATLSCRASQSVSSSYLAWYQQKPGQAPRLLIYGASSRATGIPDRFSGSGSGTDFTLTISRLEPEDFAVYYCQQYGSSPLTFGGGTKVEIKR
notes: also called 抗TLR4基因工程抗体Fab; 抗TLR4的Fab
For B1, the binding result is on record as “no binding”.
